Measured values taken from US20230057665A1 (Eli Lilly, published 2023).

Tests used:
[1] = biological target: Cyno IL-1β (cyno, UniProt P79182 117-268); experiment: cell-based or functional assay
[2] = biological target: T1, Human IL-1β (human, UniProt P01584 117-269); experiment: cell-based or functional assay
[3] = biological target: T1, Human IL-1β; experiment: MSD-SET (solution equilibrium titration, electrochemiluminescence), 37° C., 72 h equilibrium
Description: MSD (Meso Scale Discovery) electrochemiluminescence assay is utilized to measure the affinity of Antibody I, Antibody II, and Canakinumab against human IL-1β. First, the equilibrium mixture of antibodies and human IL-1β is set up; in the mixture the antibody, concentrations are kept constant at 1 pM, 10 pM, and 100 pM whereas the ligand is titrated in the concentration ranging from 0.9 nM to 0.00004 nM (2.5 times dilution between concentrations) The equilibrium mixture is set up in sealed non-binding 96-well plate at 37° C. for 72 hours.
MSD Gold Streptavidin plates are used to detect the free antibodies in the equilibrium mixture. The MSD plates are first blocked with blocking buffer (PBS+1% BSA) for 1 hour on a shaker set at 800 rpm and then washed 3 times with washing buffer PBST (PBS ±0.05% Tween 20). The plates are coated with biotinylated human IL-1p followed by 3× washing with PBST. The equilibrium mixtures are added to the coated plate, incubated at room temperature with shaking for 2.5 mins and immediately washed 3× with PBST. The goat anti-human Sulfo-TAG antibody is added to the plate and incubated at room temperature for 1 hour with shaking. After three more washes, MSD Read Buffer at 1:2 concentration diluted in MilliQ water is added to the wells. immediately afterwards, the plates are read using an MSD Sector Imager 516000 instrument.

B1: Canakinumab (antibody, human IgG4 S228P, kappa, F234A L235A, V domains shown)
VH: QVQLVESGGGVVQPGRSLRLSCAASGFTFSVYGMNWVRQAPGKGLEWVAIIWYDGDNQYYADSVKGRFTISRDNSKNTLYLQMNGLRAEDTAVYYCARDLRTGPFDYWGQGTLVTVSS
VL: EIVLTQSPDFQSVTPKEKVTITCRASQSIGSSLHWYQQKPDQSPKLLIKYASQSFSGVPSRFSGSGSGTDFTLTINSLEAEDAAAYYCHQSSSLPFTFGPGTKVDIKR
[1]
  Cyno IL-1β Inhibition IC50 (HEK-Blue IL-1β reporter cells, 4 pM IL-1β): > 10000 pM
[2]
  Human IL-1β Inhibition IC50 (HEK-Blue IL-1β reporter cells, 4 pM IL-1β): 29.2 pM
[3]
  Kd: 0.0131 nM
